{"source": "patent US20230149515A1", "about": "“INHIBITION OF SARS-COV-2 VIRAL ENTRY THROUGH ORAL ADMINISTRATION OF L[…] USES THEREOF” (priority 2020, published 2023)", "molecules": {"B1": {"name": "lactoferrin (protein, UniProt P02788 20-710, looked up)", "Lactotransferrin": "GRRRSVQWCAVSQPEATKCFQWQRNMRKVRGPPVSCIKRDSPIQCIQAIAENRADAVTLDGGFIYEAGLAPYKLRPVAAEVYGTERQPRTHYYAVAVVKKGGSFQLNELQGLKSCHTGLRRTAGWNVPIGTLRPFLNWTGPPEPIEAAVARFFSASCVPGADKGQFPNLCRLCAGTGENKCAFSSQEPYFSYSGAFKCLRDGAGDVAFIRESTVFEDLSDEAERDEYELLCPDNTRKPVDKFKDCHLARVPSHAVVARSVNGKEDAIWNLLRQAQEKFGKDKSPKFQLFGSPSGQKDLLFKDSAIGFSRVPPRIDSGLYLGSGYFTAIQNLRKSEEEVAARRARVVWCAVGEQELRKCNQWSGLSEGSVTCSSASTTEDCIALVLKGEADAMSLDGGYVYTAGKCGLVPVLAENYKSQQSSDPDPNCVDRPVEGYLAVAVVRRSDTSLTWNSVKGKKSCHTAVDRTAGWNIPMGLLFNQTGSCKFDEYFSQSCAPGSDPRSNLCALCIGDEQGENKCVPNSNERYYGYTGAFRCLAENAGDVAFVKDVTVLQNTDGNNNEAWAKDLKLADFALLCLDGKRKPVTEARSCHLAMAPNHAVVSRMDKVERLKQVLLHQQAKFGRNGSDCPDKFCLFQSETKNLLFNDNTECLARLHGKTTYEKYLGPQYVAGITNLKKCSTSPLLEACEFLRK"}}, "system": "SARS-CoV-2", "format": "cell-based", "data": [{"molecule": "B1", "values": [{"measurement": "efficacy in preventing SARS-CoV-2 infection", "setting": "Huh-7 cells, FIG. 2", "value": "~100", "unit": "%"}, {"measurement": "inhibition of SARS-CoV-2 infection (efficacy)", "setting": "all concentrations of lactoferrin tested, FIG. 3B", "value": 100, "unit": "%"}, {"measurement": "reduction in SARS-Cov-2 synctitia", "setting": "dose response study, all concentrations tested ranging from 200 ug/mL to 12.5 ug/mL, compared to viral control, FIG. 3A", "value": "> 95", "unit": "%"}]}]}
